Test system: mouse L1210 leukemia
Experiment: antitumor activity against mouse L1210 leukemia, life prolongation rate
Type: in vivo
Details: dose 1 mg/Kg, once a day for five days starting 24 hours after tumor cell injection; control survival day = 100%
Description: (§1) These HB-6 substances were tested for their antitumor activity in terms of mouse L1210 leukemia. L1210 leukemia cells (1×10^5) were abdominally injected to each mouse, and the test sample was administered once a day for consecutive five days, with the first administration being started 24 hours after injection of the tumor cells. The result is summarized in Table 1, in which the antitumor activity of each drug is expressed as life prolongation rate, taking the survival day for the control group as 100%.
as §1, with “HBW-6” for “HB-6”, “2,” for “1,”

Row | Molecule | Life Prolongation Rate
1 | HBW-10(B): NCS-apoprotein and daunomycin bound through hydrogen bond and/or hydrophobic bond, molar ratio 1:5 (conjugate, UniProt P0A3R9 35-147, looked up, noncovalent complex with daunomycin, 1:5) Neocarzinostatin: AAPTATVTPSSGLSDGTVVKVAGAGLQAGTAYDVGQCAWVDTGVLACNPADFSSVTADANGSASTSLTVRRSFEGFLFDGTRWGTVDCTTAACQVGLSDAAGNGPEGVAISFN | 270%
2 | HBW-20(A): NCS-apoprotein and adriamycin bound together, molar ratio 1:1 (conjugate, UniProt P0A3R9 35-147, looked up, noncovalent complex with adriamycin, 1:1) Neocarzinostatin: AAPTATVTPSSGLSDGTVVKVAGAGLQAGTAYDVGQCAWVDTGVLACNPADFSSVTADANGSASTSLTVRRSFEGFLFDGTRWGTVDCTTAACQVGLSDAAGNGPEGVAISFN | 268%
3 | HBW-20(B): NCS-apoprotein and adriamycin bound together, molar ratio 1:5 (conjugate, UniProt P0A3R9 35-147, looked up, adriamycin conjugate, 1:5) Neocarzinostatin: AAPTATVTPSSGLSDGTVVKVAGAGLQAGTAYDVGQCAWVDTGVLACNPADFSSVTADANGSASTSLTVRRSFEGFLFDGTRWGTVDCTTAACQVGLSDAAGNGPEGVAISFN | 245%
4 | HB-22(A): NCS-apoprotein and γ-rhodomycin Y bound together, molar ratio 1:1 (conjugate, UniProt P0A3R9 35-147, looked up, complex with gamma-rhodomycin Y, 1:1) Neocarzinostatin: AAPTATVTPSSGLSDGTVVKVAGAGLQAGTAYDVGQCAWVDTGVLACNPADFSSVTADANGSASTSLTVRRSFEGFLFDGTRWGTVDCTTAACQVGLSDAAGNGPEGVAISFN | 145%
5 | HB-22(B): NCS-apoprotein and γ-rhodomycin Y bound together, molar ratio 1:5 (conjugate, UniProt P0A3R9 35-147, looked up, γ-rhodomycin Y conjugate, 1:5) Neocarzinostatin: AAPTATVTPSSGLSDGTVVKVAGAGLQAGTAYDVGQCAWVDTGVLACNPADFSSVTADANGSASTSLTVRRSFEGFLFDGTRWGTVDCTTAACQVGLSDAAGNGPEGVAISFN | 150%
6 | HBW-22(A): NCS-apoprotein and γ-rhodomycin Y bound together, molar ratio 1:1 (conjugate, UniProt P0A3R9 35-147, looked up, γ-rhodomycin Y conjugate, 1:1) Neocarzinostatin: AAPTATVTPSSGLSDGTVVKVAGAGLQAGTAYDVGQCAWVDTGVLACNPADFSSVTADANGSASTSLTVRRSFEGFLFDGTRWGTVDCTTAACQVGLSDAAGNGPEGVAISFN | 158%
7 | HBW-22(B): NCS-apoprotein and γ-rhodomycin Y bound together, molar ratio 1:5 (conjugate, UniProt P0A3R9 35-147, looked up, complex with gamma-rhodomycin Y, 1:5) Neocarzinostatin: AAPTATVTPSSGLSDGTVVKVAGAGLQAGTAYDVGQCAWVDTGVLACNPADFSSVTADANGSASTSLTVRRSFEGFLFDGTRWGTVDCTTAACQVGLSDAAGNGPEGVAISFN | 162%
8 | HBW-18(A): NCS-apoprotein and cosmomycin A bound together, molar ratio 1:1 (conjugate, UniProt P0A3R9 35-147, looked up, complex with cosmomycin A, 1:1) Neocarzinostatin: AAPTATVTPSSGLSDGTVVKVAGAGLQAGTAYDVGQCAWVDTGVLACNPADFSSVTADANGSASTSLTVRRSFEGFLFDGTRWGTVDCTTAACQVGLSDAAGNGPEGVAISFN | 170%
9 | HBW-18(B): NCS-apoprotein and cosmomycin A bound together, molar ratio 1:5 (conjugate, UniProt P0A3R9 35-147, looked up, complex with cosmomycin A, 1:5) Neocarzinostatin: AAPTATVTPSSGLSDGTVVKVAGAGLQAGTAYDVGQCAWVDTGVLACNPADFSSVTADANGSASTSLTVRRSFEGFLFDGTRWGTVDCTTAACQVGLSDAAGNGPEGVAISFN | 175%

Same assay, conditions: dose 2 mg/Kg, once a day for five days starting 24 hours after tumor cell injection; control survival day = 100%

Row | Molecule | Life Prolongation Rate
10 | COc1cccc2c1C(=O)c1c(O)c3c(c(O)c1C2=O)C[C@@](O)(C(=O)CO)C[C@@H]3O[C@H]1C[C@H](N)[C@H](O)[C@H](C)O1 [Adriamycin, adriamycin, reference compound] | 150%
11 | CC[C@@]1(O)C[C@H](O[C@H]2C[C@H](N(C)C)[C@H](O[C@H]3C[C@H](O)[C@H](O[C@H]4CCC(=O)[C@H](C)O4)[C@H](C)O3)[C@H](C)O2)c2c(cc3c(c2O)C(=O)c2c(O)cccc2C3=O)[C@H]1C(=O)OC [Aclacinomycin A, aclacinomycin A, reference compound] | 135%
12 | HB-10(A): NCS-apoprotein and daunomycin combined at molar ratio 1:1 (conjugate, UniProt P0A3R9 35-147, looked up, complex with daunomycin, 1:1) Neocarzinostatin: AAPTATVTPSSGLSDGTVVKVAGAGLQAGTAYDVGQCAWVDTGVLACNPADFSSVTADANGSASTSLTVRRSFEGFLFDGTRWGTVDCTTAACQVGLSDAAGNGPEGVAISFN | 250%
13 | HB-10(B): NCS-apoprotein and daunomycin combined at molar ratio 1:10 (conjugate, UniProt P0A3R9 35-147, looked up, daunomycin conjugate, 1:10) Neocarzinostatin: AAPTATVTPSSGLSDGTVVKVAGAGLQAGTAYDVGQCAWVDTGVLACNPADFSSVTADANGSASTSLTVRRSFEGFLFDGTRWGTVDCTTAACQVGLSDAAGNGPEGVAISFN | 265%
14 | HB-10(C): NCS-apoprotein and daunomycin combined at molar ratio 2:1 (conjugate, UniProt P0A3R9 35-147, looked up, daunomycin conjugate, 2:1) Neocarzinostatin: AAPTATVTPSSGLSDGTVVKVAGAGLQAGTAYDVGQCAWVDTGVLACNPADFSSVTADANGSASTSLTVRRSFEGFLFDGTRWGTVDCTTAACQVGLSDAAGNGPEGVAISFN | 230%
15 | HB-10(D): NCS-apoprotein and daunomycin combined at molar ratio 4:1 (conjugate, UniProt P0A3R9 35-147, looked up, complex with daunomycin, 4:1) Neocarzinostatin: AAPTATVTPSSGLSDGTVVKVAGAGLQAGTAYDVGQCAWVDTGVLACNPADFSSVTADANGSASTSLTVRRSFEGFLFDGTRWGTVDCTTAACQVGLSDAAGNGPEGVAISFN | 200%
16 | HB-20(A): NCS-apoprotein and adriamycin bound together, molar ratio 1:1 (conjugate, UniProt P0A3R9 35-147, looked up, complex with adriamycin, 1:1) Neocarzinostatin: AAPTATVTPSSGLSDGTVVKVAGAGLQAGTAYDVGQCAWVDTGVLACNPADFSSVTADANGSASTSLTVRRSFEGFLFDGTRWGTVDCTTAACQVGLSDAAGNGPEGVAISFN | 200%
17 | HB-20(B): NCS-apoprotein and adriamycin bound together, molar ratio 1:5 (conjugate, UniProt P0A3R9 35-147, looked up, complex with adriamycin, 1:5) Neocarzinostatin: AAPTATVTPSSGLSDGTVVKVAGAGLQAGTAYDVGQCAWVDTGVLACNPADFSSVTADANGSASTSLTVRRSFEGFLFDGTRWGTVDCTTAACQVGLSDAAGNGPEGVAISFN | 205%
18 | HB-18(A): NCS-apoprotein and cosmomycin A bound together, molar ratio 1:1 (conjugate, UniProt P0A3R9 35-147, looked up, cosmomycin A conjugate, 1:1) Neocarzinostatin: AAPTATVTPSSGLSDGTVVKVAGAGLQAGTAYDVGQCAWVDTGVLACNPADFSSVTADANGSASTSLTVRRSFEGFLFDGTRWGTVDCTTAACQVGLSDAAGNGPEGVAISFN | 168%
19 | HB-18(B): NCS-apoprotein and cosmomycin A bound together, molar ratio 1:5 (conjugate, UniProt P0A3R9 35-147, looked up, cosmomycin A conjugate, 1:5) Neocarzinostatin: AAPTATVTPSSGLSDGTVVKVAGAGLQAGTAYDVGQCAWVDTGVLACNPADFSSVTADANGSASTSLTVRRSFEGFLFDGTRWGTVDCTTAACQVGLSDAAGNGPEGVAISFN | 170%
20 | HB-21(A): NCS-apoprotein and aclacinomycin A bound together, molar ratio 1:1 (conjugate, UniProt P0A3R9 35-147, looked up, complex with aclacinomycin A, 1:1) Neocarzinostatin: AAPTATVTPSSGLSDGTVVKVAGAGLQAGTAYDVGQCAWVDTGVLACNPADFSSVTADANGSASTSLTVRRSFEGFLFDGTRWGTVDCTTAACQVGLSDAAGNGPEGVAISFN | 142%
21 | HB-21(B): NCS-apoprotein and aclacinomycin A bound together, molar ratio 1:5 (conjugate, UniProt P0A3R9 35-147, looked up, aclacinomycin A conjugate, 1:5) Neocarzinostatin: AAPTATVTPSSGLSDGTVVKVAGAGLQAGTAYDVGQCAWVDTGVLACNPADFSSVTADANGSASTSLTVRRSFEGFLFDGTRWGTVDCTTAACQVGLSDAAGNGPEGVAISFN | 145%

— US4642335A, “Anthracycline compounds bound to hydrophilic polypeptides” (Ajinomoto Co., Inc., priority 1984, dated 1987)
